These results are taken from patent US20130251703A1 (Novartis, published 2013).

B1: MOR13667 (antibody, human IgG1, lambda, V domains shown)
VH: QVQLVQSGAEVKKPGASVKVSCKASGYTFTSYDIHWVRQAPGQGLEWMGRIDPYSGNTNYAQKFQGRVTMTRDTSISTAYMELSRLRSEDTAVYYCARGSFYTRDSYFDVWGQGTLVTVSS
VL: DIALTQPASVSGSPGQSITISCTGTSSDVGTYNQVSWYQQHPGKAPKLMIYGVSKRPSGVSNRFSGSKSGNTASLTISGLQAEDEADYYCQAWDYRQTIVFGGGTKLTVLG
B2: MOR13660 (antibody, human IgG1, lambda, V domains shown)
VH: QVQLVQSGAEVKKPGASVKVSCKASGYTFTSYDIHWVRQAPGQGLEWMGRIDPYSGNTNYAQKFQGRVTMTRDTSISTAYMELSRLRSEDTAVYYCARGSFYTRDSYFDVWGQGTLVTVSS
VL: DIALTQPASVSGSPGQSITISCTGTSSDVGTYNQVSWYQQHPGKAPKLMIYGVSKRPSGVSNRFSGSKSGNTASLTISGLQAEDEADYYCAVRGSQTLVFGGGTKLTVLG
B3: MOR13665 (antibody, human IgG1, lambda, V domains shown)
VH: QVQLVQSGAEVKKPGASVKVSCKASGYTFTSYDIHWVRQAPGQGLEWMGRIDPYSGNTNYAQKFQGRVTMTRDTSISTAYMELSRLRSEDTAVYYCARGSFYTRDSYFDVWGQGTLVTVSS
VL: DIALTQPASVSGSPGQSITISCTGTSSDVGTYNQVSWYQQHPGKAPKLMIYGVSKRPSGVSNRFSGSKSGNTASLTISGLQAEDEADYYCQSAAIATSVFGGGTKLTVLG
B4: MOR13669 (antibody, human IgG1, lambda, V domains shown)
VH: QVQLVQSGAEVKKPGASVKVSCKASGYTFTSYDIHWVRQAPGQGLEWMGRIDPYSGNTNYAQKFQGRVTMTRDTSISTAYMELSRLRSEDTAVYYCARGSFYTRDSYFDVWGQGTLVTVSS
VL: DIALTQPASVSGSPGQSITISCTGTSSDVGTYNQVSWYQQHPGKAPKLMIYGVSKRPSGVSNRFSGSKSGNTASLTISGLQAEDEADYYCSTATAMTVSLVFGGGTKLTVLG
B5: MOR13661 (antibody, human IgG1, lambda, V domains shown)
VH: QVQLVQSGAEVKKPGASVKVSCKASGYTFTSYDIHWVRQAPGQGLEWMGRIDPYSGNTNYAQKFQGRVTMTRDTSISTAYMELSRLRSEDTAVYYCARGSFYTRDSYFDVWGQGTLVTVSS
VL: DIALTQPASVSGSPGQSITISCTGTSSDVGTYNQVSWYQQHPGKAPKLMIYGVSKRPSGVSNRFSGSKSGNTASLTISGLQAEDEADYYCGSRDSWAHVFGGGTKLTVLG
B6: MOR13656 (antibody, human IgG1, lambda, V domains shown)
VH: QVQLVQSGAEVKKPGASVKVSCKASGYTFTSYDIHWVRQAPGQGLEWMGRIDPYSGNTNYAQKFQGRVTMTRDTSISTAYMELSRLRSEDTAVYYCARGSFYTRDSYFDVWGQGTLVTVSS
VL: DIALTQPASVSGSPGQSITISCTGTSSDVGTYNQVSWYQQHPGKAPKLMIYGVSKRPSGVSNRFSGSKSGNTASLTISGLQAEDEADYYCAVRDSVWHVFGGGTKLTVLG
B7: MOR13662 (antibody, human IgG1, lambda, V domains shown)
VH: QVQLVQSGAEVKKPGASVKVSCKASGYTFTSYDIHWVRQAPGQGLEWMGRIDPYSGNTNYAQKFQGRVTMTRDTSISTAYMELSRLRSEDTAVYYCARGSFYTRDSYFDVWGQGTLVTVSS
VL: DIALTQPASVSGSPGQSITISCTGTSSDVGTYNQVSWYQQHPGKAPKLMIYGVSKRPSGVSNRFSGSKSGNTASLTISGLQAEDEADYYCYSRAKTHWTDVFGGGTKLTVLG
B8: MOR12920 (antibody, human IgG1, lambda, V domains shown)
VH: QVQLVQSGAEVKKPGASVKVSCKASGYTFTGYYMHWVRQAPGQGLEWMGDIEPYHGKPLYAQKFQGRVTMTRDTSISTAYMELSRLRSEDTAVYYCARGSFYTRDSYFDVWGQGTLVTVSS
VL: DIALTQPASVSGSPGQSITISCTGTSSDVGTYNQVSWYQQHPGNAPKLMIYGVSKRPSGVSNRFSGSKSGNTASLTISGLQAEDEADYYCSSRDLIGHYVFGGGTKLTVLG
B9: MOR13659 (antibody, human IgG1, lambda, V domains shown)
VH: QVQLVQSGAEVKKPGASVKVSCKASGYTFTSYDIHWVRQAPGQGLEWMGRIDPYSGNTNYAQKFQGRVTMTRDTSISTAYMELSRLRSEDTAVYYCARGSFYTRDSYFDVWGQGTLVTVSS
VL: DIALTQPASVSGSPGQSITISCTGTSSDVGTYNQVSWYQQHPGKAPKLMIYGVSKRPSGVSNRFSGSKSGNTASLTISGLQAEDEADYYCGSRTSHNWVFGGGTKLTVLG
B10: MOR13668 (antibody, human IgG1, lambda, V domains shown)
VH: QVQLVQSGAEVKKPGASVKVSCKASGYTFTSYDIHWVRQAPGQGLEWMGRIDPYSGNTNYAQKFQGRVTMTRDTSISTAYMELSRLRSEDTAVYYCARGSFYTRDSYFDVWGQGTLVTVSS
VL: DIALTQPASVSGSPGQSITISCTGTSSDVGTYNQVSWYQQHPGKAPKLMIYGVSKRPSGVSNRFSGSKSGNTASLTISGLQAEDEADYYCQVWDSDQAMVFGGGTKLTVLG
B11: MOR13664 (antibody, human IgG1, lambda, V domains shown)
VH: QVQLVQSGAEVKKPGASVKVSCKASGYTFTSYDIHWVRQAPGQGLEWMGRIDPYSGNTNYAQKFQGRVTMTRDTSISTAYMELSRLRSEDTAVYYCARGSFYTRDSYFDVWGQGTLVTVSS
VL: DIALTQPASVSGSPGQSITISCTGTSSDVGTYNQVSWYQQHPGKAPKLMIYGVSKRPSGVSNRFSGSKSGNTASLTISGLQAEDEADYYCSAYDASTQVVFGGGTKLTVLG
B12: MOR13670 (antibody, human IgG1, lambda, V domains shown)
VH: QVQLVQSGAEVKKPGASVKVSCKASGYTFTSYDIHWVRQAPGQGLEWMGRIDPYSGNTNYAQKFQGRVTMTRDTSISTAYMELSRLRSEDTAVYYCARGSFYTRDSYFDVWGQGTLVTVSS
VL: DIALTQPASVSGSPGQSITISCTGTSSDVGTYNQVSWYQQHPGKAPKLMIYGVSKRPSGVSNRFSGSKSGNTASLTISGLQAEDEADYYCQVADQGWHQVFGGGTKLTVLG
B13: MOR12922 (antibody, human IgG1, lambda, V domains shown)
VH: QVQLVQSGAEVKKPGASVKVSCKASGYTFTGYYMHWVRQAPGQGLEWMGVIDPYSGWTEYAQKFQGRVTMTRDTSISTAYMELSRLRSEDTAVYYCARGSFYTRDSYFDVWGQGTLVTVSS
VL: DIALTQPASVSGSPGQSITISCTGTSSDVGTYNQVSWYQQHPGKAPKLMIYGVSKRPSGVSNRFSGSKSGNTASLTISGLQAEDEADYYCSSRDLIGHYVFGGGTKLTVLG
B14: MOR13663 (antibody, human IgG1, lambda, V domains shown)
VH: QVQLVQSGAEVKKPGASVKVSCKASGYTFTSYDIHWVRQAPGQGLEWMGRIDPYSGNTNYAQKFQGRVTMTRDTSISTAYMELSRLRSEDTAVYYCARGSFYTRDSYFDVWGQGTLVTVSS
VL: DIALTQPASVSGSPGQSITISCTGTSSDVGTYNQVSWYQQHPGKAPKLMIYGVSKRPSGVSNRFSGSKSGNTASLTISGLQAEDEADYYCSVWTSIKVFVFGGGTKLTVLG

The first assay deals with T1, human HER3 endogenously expressed on human cancer cells (SK-Br-3, BT-474, MCF7) (human, UniProt P21860 20-1342). The experiment in a line: cell-based or functional assay.
As for B1, the “MCF7 pHER3 % inhibition” value was found to be 72%, the “MCF7 pHER3 IC50” value is 603 pM, the “SK-Br-3 pHER3 % inhibition” value amounted to 59% and the “SK-Br-3 pHER3 IC50” value is 267 pM.
The like results for B2 were, in that order, 49%, 533 pM, 54% and 188 pM.
The matching figures for B3: 62%, 795 pM, 59% and 546 pM.
On to B4, for which the “MCF7 pHER3 % inhibition” value came out at 66%, the “SK-Br-3 pHER3 % inhibition” value came out at 58% and the “SK-Br-3 pHER3 IC50” value turned out to be 743 pM.
Turning to B5, the “MCF7 pHER3 % inhibition” value was 55%, the “MCF7 pHER3 IC50” value stood at 649 pM, the “SK-Br-3 pHER3 % inhibition” value was determined as 55% and the “SK-Br-3 pHER3 IC50” value came out at 421 pM.
For B6, the “MCF7 pHER3 % inhibition” value was 73%, the “MCF7 pHER3 IC50” value is 504 pM, the “SK-Br-3 pHER3 % inhibition” value turned out to be 60% and the “SK-Br-3 pHER3 IC50” value was 86 pM.
Turning to B7, the “MCF7 pHER3 % inhibition” value came out at 52%, the “MCF7 pHER3 IC50” value was 550 pM, the “SK-Br-3 pHER3 % inhibition” value came to 56% and the “SK-Br-3 pHER3 IC50” value was found to be 331 pM.
As to B8, the “BT474 pHER3 % inhibition” value came out at 57%, the “BT474 pHER3 IC50” value is 2020 pM, the “MCF7 pHER3 % inhibition” value turned out to be 66% and the “MCF7 pHER3 IC50” value was found to be 3070 pM. Further, the “SK-Br-3 pHER3 % inhibition” value was 57% and the “SK-Br-3 pHER3 IC50” value came out at 851 pM.
B9: the “MCF7 pHER3 % inhibition” value was 66%, the “MCF7 pHER3 IC50” value was determined as 505 pM, the “SK-Br-3 pHER3 % inhibition” value was determined as 51% and the “SK-Br-3 pHER3 IC50” value worked out at 277 pM.
For the molecule B10, the “MCF7 pHER3 % inhibition” value turned out to be 77%, the “MCF7 pHER3 IC50” value came out at 1640 pM, the “SK-Br-3 pHER3 % inhibition” value came to 58% and the “SK-Br-3 pHER3 IC50” value came out at 657 pM.
The matching figures for B11: 55%, 480 pM, 57% and 388 pM.
Regarding B12, the “MCF7 pHER3 % inhibition” value was found to be 69%, the “MCF7 pHER3 IC50” value was 643 pM, the “SK-Br-3 pHER3 % inhibition” value was 60% and the “SK-Br-3 pHER3 IC50” value was 730 pM.
For the molecule B13, the “BT474 pHER3 % inhibition” value came to 58%, the “BT474 pHER3 IC50” value was 702 pM, the “MCF7 pHER3 % inhibition” value was determined as 62% and the “MCF7 pHER3 IC50” value worked out at 788 pM. The “SK-Br-3 pHER3 % inhibition” value is 64% and the “SK-Br-3 pHER3 IC50” value was determined as 81 pM.
On to B14, for which the “MCF7 pHER3 % inhibition” value came out at 58%, the “MCF7 pHER3 IC50” value turned out to be 449 pM, the “SK-Br-3 pHER3 % inhibition” value stood at 56% and the “SK-Br-3 pHER3 IC50” value came out at 290 pM.

The next assay deals with T1, human HER3 endogenously expressed on …. Description: cell-based or functional assay. This is another data set of the same source.
For B8, the “MCF7 proliferation % inhibition” value was 22%, the “MCF7 proliferation IC50” value stood at 1.92 nM, the “SK-Br-3 proliferation % inhibition” value worked out at 32% and the “SK-Br-3 proliferation IC50” value was determined as 2.91 nM.
The like results for B13 were, in that order, 27%, 0.467 nM, 36% and 0.709 nM.
